How the values were obtained:
[1] = molecular target: T1, binding between PPARγ2 and 14-3-3β (Homo sapiens, UniProt P37231); assay: GST-pull down assay, binding between PPARγ2 and 14-3-3β (HEK-293T)
T1 construct: expressed in transfected cells; host or cells: HEK-293T
T1 sequence (P37231 1-505): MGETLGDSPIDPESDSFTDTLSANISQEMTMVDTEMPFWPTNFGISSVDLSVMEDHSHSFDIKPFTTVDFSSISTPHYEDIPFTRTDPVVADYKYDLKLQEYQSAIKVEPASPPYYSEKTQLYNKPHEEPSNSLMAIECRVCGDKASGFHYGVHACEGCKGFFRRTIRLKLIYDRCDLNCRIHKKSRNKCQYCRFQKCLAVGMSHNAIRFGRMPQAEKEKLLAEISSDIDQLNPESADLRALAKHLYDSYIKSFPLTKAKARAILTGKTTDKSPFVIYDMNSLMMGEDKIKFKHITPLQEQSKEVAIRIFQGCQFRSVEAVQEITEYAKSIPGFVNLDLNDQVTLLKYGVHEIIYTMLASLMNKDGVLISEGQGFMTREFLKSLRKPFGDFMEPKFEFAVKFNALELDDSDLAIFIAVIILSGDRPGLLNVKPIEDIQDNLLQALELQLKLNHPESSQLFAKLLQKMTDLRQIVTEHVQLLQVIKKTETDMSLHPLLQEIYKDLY
T1 sequence (P31946 1-246 partner): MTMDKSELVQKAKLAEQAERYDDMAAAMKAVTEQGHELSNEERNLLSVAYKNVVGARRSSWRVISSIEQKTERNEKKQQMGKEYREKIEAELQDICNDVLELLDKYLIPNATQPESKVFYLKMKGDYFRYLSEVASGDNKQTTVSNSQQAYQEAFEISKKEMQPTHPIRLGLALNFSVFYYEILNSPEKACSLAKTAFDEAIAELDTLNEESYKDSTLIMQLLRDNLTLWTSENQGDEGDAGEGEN
Protocol: (§1) After transfection, […], washed with ice-cold PBS, and lysed using 500 μl/well of a lysis buffer (150 mM NaCl, 1 mM EDTA, 1% Nonidet P-40, 5% glycerol, 25 mM tris-HCl, pH 7.5, protease inhibitor added), and the lysed cells were centrifuged at 10,000×g and 4° C. for 10 minutes to extract proteins. Thereafter, 1,000 μg of the proteins was reacted with 20 μl of glutathione Sepharose 4B beads (GE Healthcare, Buckinghamshire, UK) for 6 hours, and then washing of the beads with 1 ml of ice-cold PBS was repeated 5 times, and the beads were boiled at 100° C. for 10 minutes, followed by 10% SDS-PAGE gel separation and western blotting. A ratio of GST antibodies (Santa Cruz) to Myc antibodies (self-production) was 1:3000. The detection of each protein was performed using West Pico ECL (Thermo scientific, Rockford, Ill.) and identified in a darkroom.
(§2) After transfection, […], washed with ice-cold PBS, and lysed using 500 μl/well of a lysis buffer (150 mM NaCl, 1 mM EDTA, 1% Nonidet P-40, 5% glycerol, 25 mM tris-HCl, pH 7.5, protease inhibitor added), and the lysed cells were centrifuged at 10,000×g and 4° C. for 10 minutes to extract proteins. […]

[2] = molecular target: T2, binding between PPARγ2 and 14-3-3γ (Homo sapiens, UniProt P37231); assay: GST-pull down assay, binding between PPARγ2 and 14-3-3γ (HEK-293T)
T2 construct: expressed in transfected cells; host or cells: HEK-293T
T2 sequence (P37231 1-505): T1 sequence (P37231 1-505)
Protocol: as §1, §2

[3] = molecular target: T3, PPARγ2 deletion mutant (1-310) (Homo sapiens, UniProt P37231); assay: GST-pull down assay with PPARγ2 deletion mutant (1-310); format: binding; settings: FIG. 3B/3C
T3 construct: Flag-PPARγ2 (1-310) DNA (4 μg); expressed in transfected cells; host or cells: HEK-293T
T3 sequence (P37231 1-310): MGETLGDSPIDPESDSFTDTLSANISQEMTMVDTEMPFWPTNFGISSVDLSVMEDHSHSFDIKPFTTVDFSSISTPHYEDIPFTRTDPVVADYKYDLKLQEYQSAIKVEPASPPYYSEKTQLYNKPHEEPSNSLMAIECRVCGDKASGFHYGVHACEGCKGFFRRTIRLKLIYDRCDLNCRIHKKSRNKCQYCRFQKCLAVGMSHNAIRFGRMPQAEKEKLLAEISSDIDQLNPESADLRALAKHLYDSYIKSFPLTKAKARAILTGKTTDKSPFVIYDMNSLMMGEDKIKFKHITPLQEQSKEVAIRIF
Protocol: HEK-293T cells were seeded in a 100 mm plate at a density of 2×10^6 cells per each well, and then transfected with Flag-PPARγ2 (1-505) DNA (4 μg), Flag-PPARγ2 (1-310) DNA (4 μg), Flag-PPARγ2 (139-505) DNA (4 μg), and mGST-14-3-3β (4 μg) or mGST-14-3-3γ (4 μg) using an E-fection plus reagent (Lugen). For Flag-PPARγ2 (1-310) DNA and Flag-PPARγ2 (139-505) DNA, DNA fragments amplified through polymerase chain reaction (PCR) were cloned into a pCMV-3Tag-1 vector using restriction enzymes XhoI and ApaI. A ratio of DNA to the E-fection plus reagent was 1:2, and this method was performed according to a manufacturer's manual. The corresponding cells were washed with ice-cold PBS and lysed using 500 μl/well of a lysis buffer (150 mM NaCl, 1 mM EDTA, 1% Nonidet P-40, 5% glycerol, 25 mM tris-HCl, pH 7.5, protease inhibitor added), and the lysed cells were centrifuged at 10,000×g and 4° C. for 10 minutes to extract proteins. Thereafter, 1,000 μg of the proteins was reacted with 20 μl of glutathione Sepharose 4B beads (GE Healthcare, Buckinghamshire, UK) for 6 hours, and then washing of the beads with 1 ml of ice-cold PBS was repeated 5 times, and the beads were boiled at 100° C. for 10 minutes, followed by 10% SDS-PAGE gel separation and western blotting. A ratio of GST antibodies (Santa Cruz) to Flag antibodies (Santa Cruz) was 1:3000. […]

Row | Compound | binding between PPARγ2 and 14-3-3β ([1]; 200 μM oleic acid 72 hours, FIG. 8A) | binding between PPARγ2 and 14-3-3γ ([2]; 200 μM oleic acid 72 hours, FIG. 8B) | binding to PPARγ2 deletion mutant (1-310) [3] | binding between 14-3-3β and PPARγ2 ([1]; expression amount of 14-3-3γ increased (HA-14-3-3γ DNA 2 and 4 μg), FIG. 5A) | binding between 14-3-3γ and PPARγ2 ([2]; expression amount of 14-3-3β increased (HA-14-3-3β DNA 2 and 4 μg), FIG. 5B)
1 | CCCCCCCC/C=C\CCCCCCCC(=O)O [oleic acid] | increased | reduced | – | – | –
2 | 14-3-3γ: 14-3-3 isoform protein overexpressed by DNA transfection; decreases the transcriptional activity of PPARγ2; proposed active ingredient | – | – | bound | reduced | –
3 | 14-3-3β: 14-3-3 isoform protein overexpressed by DNA transfection; increases the transcriptional activity of PPARγ2 by binding to PPARγ2 | – | – | bound | – | reduced

— patent US10688197B2, “Non-alcoholic fatty liver regulator 14-3-3 protein” (Korea University Research and Business Foundation, priority 2015, dated 2020)
